Laboratory results reported in article PMC10682391, “Discovery of a non-canonical prototype long-chain monoacylglycerol lipase through a structure-based endogenous reaction intermediate complex” (Nature Communications, 2023).

Assays:
[1] = molecular target: Tth MAG lipase (wild type), monoacylglycerol lipase from Thermoanaerobacter thermohydrosulfuricus (Thermoanaerobacter thermohydrosulfuricus); test: SEC; size exclusion chromatography profile, Superdex 75 increase 3.2/300 column (Cytiva); dimeric and monomeric fractions
Tth MAG lipase [2] = molecular target: T1, Tth MAG lipase (Thermoanaerobacter ethanolicus, UniProt A0A1G7VV58); test: X-ray crystal structure; format: binding; details: active site, bound by Glu43; native protein crystals, no glycerol added
T1 construct: gene SAMN04244560_02687; full length, residues 1-259; E. coli; pETM-14, Ni-NTA purified (kinetics); pETBlue-1 (crystals, some SeMet and lysine-methylated); homodimer; Ser113/His233, HGF 35-37, FSE 77-79, lid 141-183

Tth MAG lipase [3] = molecular target: T1, Tth MAG lipase; test: pNP ester hydrolysis, […] nm, Michaelis-Menten fit; format: biochemical; details: 50 mM Tris-HCl pH 8.0, 40 °C, 1 mg/ml gum arabic
Tth MAG lipase [4] = molecular target: T1, Tth MAG lipase; test: X-ray crystal structure; LC-MS of dissolved crystals; format: binding; details: endogenous ligand from E. coli; loosely coordinated tetrahedral intermediate at Ser113; SeMet, lysine-methylated protein; active site and lid tunnel
purified protein [5] = substrate: CCCCCCCC(=O)Oc1ccc([N+](=O)[O-])cc1; test: purified protein; format: biochemical, Thermoanaerobacter ethanolicus; details: 50 mM Tris-HCl pH 8.0, 40 °C, 1 mg/ml gum arabic
purified protein [6] = substrate: CCCCCCCCCCCC(=O)Oc1ccc([N+](=O)[O-])cc1; test: purified protein; format: biochemical, Thermoanaerobacter ethanolicus; details: 50 mM Tris-HCl pH 8.0, 40 °C, 1 mg/ml gum arabic
purified protein [7] = substrate: CCCCCC(=O)Oc1ccc([N+](=O)[O-])cc1; test: purified protein; format: biochemical, Thermoanaerobacter ethanolicus; details: 50 mM Tris-HCl pH 8.0, 40 °C, 1 mg/ml gum arabic
purified protein [8] = substrate: CCCCCCCCCCCCCC(=O)Oc1ccc([N+](=O)[O-])cc1; test: purified protein; format: biochemical, Thermoanaerobacter ethanolicus; details: 50 mM Tris-HCl pH 8.0, 40 °C, 1 mg/ml gum arabic
purified protein [9] = substrate: CCCC(=O)Oc1ccc([N+](=O)[O-])cc1; test: purified protein; format: biochemical, Thermoanaerobacter ethanolicus; details: 50 mM Tris-HCl pH 8.0, 40 °C, 1 mg/ml gum arabic

With “Tth MAG lipase (wild type), monoacylglycerol lipase from Thermoanaerobacter thermohydrosulfuricus (enzyme)” the stoichiometry N [1] was 2.

`OCC(O)CO` [glycerol] was tested, and the X-ray crystal structure (Tth MAG lipase [2]) was “glycerol is found in a literally identical active site position in five out of six”.

Work on `CC(=O)Oc1ccc([N+](=O)[O-])cc1` [C2 pNP ester] yielded a Km (Tth MAG lipase [3]) of over 2000 µM.

With `CCCCCCCCCCCCCCCCCC(=O)OCC(O)CO` (stereo not shown) [glycerol monostearate, 2,3-dihydroxypropyloctadecanoate] the “X-ray crystal structure; LC-MS of dissolved crystals” value (Tth MAG lipase [4]) was “we modeled a monostearate (C18) acyl ligand into the electron density of the active Tth”.

B1: Tth MAG lipase (Thermoanaerobacter ethanolicus subsp. thermohydrosulfuricus) (protein)
chain: MQKAVEITYNGKTLRGMMHLPDDVKGKVPMVIMFHGFTGNKVESHFIFVKMSRALEKVGIGSVRFDFYGSGESDGDFSEMTFSSELEDARQILKFVKEQPTTDPERIGLLGLSMGGAIAGIVAREYKDEIKALVLWAPAFNMPELIMHESVKQYGAIMEQLGFVDIGGHKLSKDFVEDISKLNIFELSKGYDKKVLIVHGTNDEAVEYKVSDRILKEVYGDNATRVTIENADHTFKSLEWEKKAIEESVEFFKKELLKG
notes: full length, residues 1-259; E. coli; pETM-14, Ni-NTA purified (kinetics); pETBlue-1 (crystals, some SeMet and lysine-methylated); homodimer; Ser113/His233, HGF 35-37, FSE 77-79, lid 141-183
For B1, the Km (purified protein [5]) was 4.9 ± 1.5 x 10^-1 mM, the kcat (purified protein [5]) was 5.5 ± 0.8 s⁻¹ and the Km (purified protein [6]) was 100 µM. The Km (purified protein [7]) was 3.6 ± 0.8 x 10^-1 mM, the kcat (purified protein [7]) was 4.9 ± 0.4 s⁻¹ and the Km (purified protein [8]) was 100 µM. For the same molecule, the Km (purified protein [9]) was 7.1 ± 0.7 x 10^-1 mM and the kcat (purified protein [9]) was 8.6 ± 0.5 s⁻¹.

B2: Tth MAG lipase (Thermoanaerobacter ethanolicus subsp. thermohydrosulfuricus; E43A) (protein)
chain: MQKAVEITYNGKTLRGMMHLPDDVKGKVPMVIMFHGFTGNKVASHFIFVKMSRALEKVGIGSVRFDFYGSGESDGDFSEMTFSSELEDARQILKFVKEQPTTDPERIGLLGLSMGGAIAGIVAREYKDEIKALVLWAPAFNMPELIMHESVKQYGAIMEQLGFVDIGGHKLSKDFVEDISKLNIFELSKGYDKKVLIVHGTNDEAVEYKVSDRILKEVYGDNATRVTIENADHTFKSLEWEKKAIEESVEFFKKELLKG
notes: as for B1
With B2 the Km (purified protein [7]) was 7.1 ± 3.0 x 10^-1 mM and the kcat (purified protein [7]) was 1.2 ± 0.3 x 10^1 s^-1.

B3: Tth MAG lipase (Thermoanaerobacter ethanolicus subsp. thermohydrosulfuricus; Y154A) (protein)
chain: MQKAVEITYNGKTLRGMMHLPDDVKGKVPMVIMFHGFTGNKVESHFIFVKMSRALEKVGIGSVRFDFYGSGESDGDFSEMTFSSELEDARQILKFVKEQPTTDPERIGLLGLSMGGAIAGIVAREYKDEIKALVLWAPAFNMPELIMHESVKQAGAIMEQLGFVDIGGHKLSKDFVEDISKLNIFELSKGYDKKVLIVHGTNDEAVEYKVSDRILKEVYGDNATRVTIENADHTFKSLEWEKKAIEESVEFFKKELLKG
notes: as for B1
For B3, the Km (purified protein [7]) was 4.8 ± 0.8 x 10^-1 mM and the kcat (purified protein [7]) was 5.7 ± 0.4 s⁻¹.
